In paper PMC2615626:

Target: Sulfolobus solfataricus 50S ribosomal subunit (S. solfataricus (endogenous in S. solfataricus cells)) (UniProt P55858)
Assay: co-sedimentation

UniProt P55858, sequence (P55858 whole entry, looked up, tested part not stated): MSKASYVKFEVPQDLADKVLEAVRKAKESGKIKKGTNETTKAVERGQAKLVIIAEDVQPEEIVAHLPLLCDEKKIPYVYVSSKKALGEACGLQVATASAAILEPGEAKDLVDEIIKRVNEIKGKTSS

stoichiometry N: 1 aIF6 per 50S
Substance: recombinant Sulfolobus solfataricus aIF6, His-tagged (natural protein)
